How the values were obtained:
[1] = biological target: T1, recombinant full-length PcrV protein (1-294) of Pseudomonas aeruginosa (Pseudomonas aeruginosa, in the biotin-labeled form: PEO-maleimide biotin on the cysteine inserted between histidine tag and start codon); assay: surface plasmon resonance analysis, PcrV antigen
T1 construct: also called PcrV antigen; recombinant PcrV; not shown: N-terminal histidine tag encoded by the expression vector (pWE30 [sic] / pQE30)

[2] = biological target: T1, recombinant full-length PcrV protein …; assay: SPR, BIAcore T100, antibody captured by anti-mouse antibody on CM5 chip, recombinant PcrV as analyte
truncated PcrV (136-233) = biological target: T2, truncated PcrV (136-233) (Pseudomonas aeruginosa); assay: Western blotting: purified recombinant truncated PcrV on SDS-PAGE/PVDF, antibody at 1 ug/mL, labeled anti-mouse IgG, ECL [panel Truncated PcrV (136-233]
T2 construct: also called truncated PcrV protein

[3] = biological target: T1, recombinant full-length PcrV protein …; assay: SPR, BIAcore T-100, culture supernatant, recombinant PcrV (FIG. 13)
[4] = biological target: T1, recombinant full-length PcrV protein …; assay: surface plasmon resonance analysis (BIAcore T-100), culture supernatant, recombinant PcrV
[5] = biological target: T1, recombinant full-length PcrV protein …; assay: surface plasmon resonance analysis, PcrV antigen; remark: listed apart in the source

B1: humanized monoclonal antibody h1F3 (antibody, V domains shown)
VH: QVQLVQSGAEVKKPGASVKVSCKASGYSFTSYWMHWVRQAPGQGLEWMGEINPSNGRTNYNEKFNTRVTMTRDTSTSTVYMELSSLRSEDTAVYYCVLYGNYVVYYTMDYWGQGT
VL: DIQLTQSPSFLSASVGDRVTITCSASTSVSYMEWYQQKPGKAPKLLIYTTSKLASGVPSRFSGSGSGTEFTLTISSLQPEDFATYYCHQWRNYPFTFGQGTKLEIKR
notes: also called humanized antibody; humanized PcrV antibody
Binder B1 has a Kd [1] of 0.38 nM, a koff [1] of 0.00033 s⁻¹ and a kon [1] of 870000 M⁻¹ s⁻¹.

B2: mouse monoclonal antibody 1F3 (antibody, V domains shown)
VH: QVQLQQPGAELVKPGASVKLSCKASGYSFTSYWMHWVKQRPGQGLEWIGEINPSNGRTNYNEKFNTKATLTVDTSSSTAYMQLSSLTSEDSAVYYCVLYGNYVVYYTMDYWGQGTSVTVSS
VL: QIVLTQSPTIMSASLGEEITLTCSASTSVSYMEWYQQKSGTSPKILIYTTSKLASGVPSRFSGSGSGTFYSLTISSVEAEDAADYYCHQWRNYPFTFGSGTKLEIK
notes: also called m1F3; mouse PcrV antibody
With B2 the Kd [2] was 0.37 nM and the binding result (truncated PcrV (136-233)) was “binds”.

B3: mouse-human chimeric 1F3 antibody (antibody, V domains shown)
VH: B2 VH
VL: B2 VL
notes: Human IgG4Pro (S228P) heavy constant region and human Igkappa constant region; tested as culture supernatant; also called mouse-human chimeric antibody; mouse/human chimeric antibody
B3 was tested, and the Kd [3] was 0.26 nM, the koff [4] was 0.00051 s⁻¹ and the kon [4] was 2e+06 M⁻¹ s⁻¹. It also gave a Kd [1] of 0.49 nM, a koff [1] of 0.00037 s⁻¹ and a kon [1] of 740000 M⁻¹ s⁻¹. The Kd [5] was 0.27 nM, the koff [5] was 0.00023 s⁻¹ and the kon [5] was 850000 M⁻¹ s⁻¹.

B4: antibody including the heavy chain of the template humanized antibody and the light chain of the mutant humanized antibody (antibody, V domains shown)
VH: QVQLVQSGAEVKKPGASVKVSCKASGYSFTSYWMHWVRQAPGQGLEWMGEINPSNGRTNYNEKFNTRVTMTRDTSTSTVYMELSSLRSEDTAVYYCARYGNYVVYYTMDYWGQGTTVTVSS
VL: DIQLTQSPTFLSASVGDRVTITCSASTSVSYMEWYQQKPGKAPKILIYTTSKLASGVPSRFSGSGSGTEYTLTISSLQPEDFATYYCHQWRNYPFTFGQGTKLEIK
notes: Human IgG4Pro (S228P) and human Igkappa constant regions; tested as culture supernatant; also called HT/LB
With B4 the Kd [3] was 650 nM, the koff [4] was 0.04 s⁻¹ and the kon [4] was 62000 M⁻¹ s⁻¹.
